Starred links: 1 amine or outer side, 2 acyl side, 3 side chain; linkers in the order of their positions; H or OH if unused. Non-standard residues stand in square brackets, D forms with d. Groups on a side chain read outwards from the residue. Primed or numbered codes have the meaning given here. No end group written: not given here. *: point of attachment. Dodecanoyl(12-OPh(4-COOH)) = O=C(O)c1ccc(OCCCCCCCCCCCC(=O)*)cc1; γGlu = O=C(O)[C@H](CCC(=O)[*:2])N[*:1]; αMeF = C[C@](N)(Cc1ccccc1)C(=O)O; αMeK = C[C@](N)(CCCCN)C(=O)O; Lauroyl = CCCCCCCCCCCC(=O)*; αMeS = C[C@](N)(CO)C(=O)O; PEG2′ = not defined here; Aib = CC(C)(N)C(=O)O; Ahx = NCCCCCC(=O)O
T1: glucose-dependent insulinotropic peptide (gastric inhibitory polypeptide) receptor (GIPR) (human, UniProt P48546 22-466)
T1 sequence (looked up): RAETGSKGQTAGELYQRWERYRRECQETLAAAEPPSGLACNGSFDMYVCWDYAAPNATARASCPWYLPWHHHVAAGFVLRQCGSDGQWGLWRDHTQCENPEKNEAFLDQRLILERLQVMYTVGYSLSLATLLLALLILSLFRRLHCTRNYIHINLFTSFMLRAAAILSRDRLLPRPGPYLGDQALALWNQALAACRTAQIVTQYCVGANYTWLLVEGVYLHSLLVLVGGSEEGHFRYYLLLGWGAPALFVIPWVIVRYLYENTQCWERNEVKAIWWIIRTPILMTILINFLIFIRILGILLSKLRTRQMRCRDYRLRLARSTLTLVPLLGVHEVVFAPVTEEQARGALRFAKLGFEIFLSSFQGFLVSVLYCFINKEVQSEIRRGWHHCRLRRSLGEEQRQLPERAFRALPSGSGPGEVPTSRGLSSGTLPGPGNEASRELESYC

B1: SEQ ID NO 131 (peptide)
peptide: H[Aib]EGS[αMeF]TSDV[αMeS]S[αMeF]LEGEAAK([Ahx-Lauroyl])E[αMeF]IA[αMeF]VV[αMeK]GG-NH2
modifications: N-terminus assumed
SMILES: CCCCCCCCCCCC(=O)NCCCCCC(=O)NCCCC[C@H](NC(=O)[C@H](C)NC(=O)[C@H](C)NC(=O)[C@H](CCC(=O)O)NC(=O)CNC(=O)[C@H](CCC(=O)O)NC(=O)[C@H](CC(C)C)NC(=O)[C@](C)(Cc1ccccc1)NC(=O)[C@H](CO)NC(=O)[C@](C)(CO)NC(=O)[C@@H](NC(=O)[C@H](CC(=O)O)NC(=O)[C@H](CO)NC(=O)[C@@H](NC(=O)[C@](C)(Cc1ccccc1)NC(=O)[C@H](CO)NC(=O)CNC(=O)[C@H](CCC(=O)O)NC(=O)C(C)(C)NC(=O)[C@@H](N)Cc1c[nH]cn1)[C@@H](C)O)C(C)C)C(=O)N[C@@H](CCC(=O)O)C(=O)N[C@@](C)(Cc1ccccc1)C(=O)N[C@H](C(=O)N[C@@H](C)C(=O)N[C@@](C)(Cc1ccccc1)C(=O)N[C@H](C(=O)N[C@H](C(=O)N[C@@](C)(CCCCN)C(=O)NCC(=O)NCC(N)=O)C(C)C)C(C)C)[C@@H](C)CC
B2: SEQ ID NO 132 (peptide)
peptide: H[Aib]EGS[αMeF]TSDV[αMeS]S[αMeF]LEGEAAK([Ahx-Ahx-Lauroyl])E[αMeF]IA[αMeF]VV[αMeK]GG-NH2
modifications: N-terminus assumed
SMILES: CCCCCCCCCCCC(=O)NCCCCCC(=O)NCCCCCC(=O)NCCCC[C@H](NC(=O)[C@H](C)NC(=O)[C@H](C)NC(=O)[C@H](CCC(=O)O)NC(=O)CNC(=O)[C@H](CCC(=O)O)NC(=O)[C@H](CC(C)C)NC(=O)[C@](C)(Cc1ccccc1)NC(=O)[C@H](CO)NC(=O)[C@](C)(CO)NC(=O)[C@@H](NC(=O)[C@H](CC(=O)O)NC(=O)[C@H](CO)NC(=O)[C@@H](NC(=O)[C@](C)(Cc1ccccc1)NC(=O)[C@H](CO)NC(=O)CNC(=O)[C@H](CCC(=O)O)NC(=O)C(C)(C)NC(=O)[C@@H](N)Cc1c[nH]cn1)[C@@H](C)O)C(C)C)C(=O)N[C@@H](CCC(=O)O)C(=O)N[C@@](C)(Cc1ccccc1)C(=O)N[C@H](C(=O)N[C@@H](C)C(=O)N[C@@](C)(Cc1ccccc1)C(=O)N[C@H](C(=O)N[C@H](C(=O)N[C@@](C)(CCCCN)C(=O)NCC(=O)NCC(N)=O)C(C)C)C(C)C)[C@@H](C)CC
B3: SEQ ID NO 133 (peptide)
peptide: H[Aib]EGS[αMeF]TSDV[αMeS]S[αMeF]LEGEAAK([Ahx-Ahx-Ahx-Lauroyl])E[αMeF]IA[αMeF]VV[αMeK]GG-NH2
modifications: N-terminus assumed
SMILES: CCCCCCCCCCCC(=O)NCCCCCC(=O)NCCCCCC(=O)NCCCCCC(=O)NCCCC[C@H](NC(=O)[C@H](C)NC(=O)[C@H](C)NC(=O)[C@H](CCC(=O)O)NC(=O)CNC(=O)[C@H](CCC(=O)O)NC(=O)[C@H](CC(C)C)NC(=O)[C@](C)(Cc1ccccc1)NC(=O)[C@H](CO)NC(=O)[C@](C)(CO)NC(=O)[C@@H](NC(=O)[C@H](CC(=O)O)NC(=O)[C@H](CO)NC(=O)[C@@H](NC(=O)[C@](C)(Cc1ccccc1)NC(=O)[C@H](CO)NC(=O)CNC(=O)[C@H](CCC(=O)O)NC(=O)C(C)(C)NC(=O)[C@@H](N)Cc1c[nH]cn1)[C@@H](C)O)C(C)C)C(=O)N[C@@H](CCC(=O)O)C(=O)N[C@@](C)(Cc1ccccc1)C(=O)N[C@H](C(=O)N[C@@H](C)C(=O)N[C@@](C)(Cc1ccccc1)C(=O)N[C@H](C(=O)N[C@H](C(=O)N[C@@](C)(CCCCN)C(=O)NCC(=O)NCC(N)=O)C(C)C)C(C)C)[C@@H](C)CC
B4: SEQ ID NO 137 (peptide)
peptide: H[Aib]EGS[αMeF]TSDV[αMeS]S[αMeF]LEGEAAK([γGlu-Dodecanoyl(12-OPh(4-COOH))])E[αMeF]IA[αMeF]VV[αMeK]GG-NH2
modifications: N-terminus assumed
SMILES: CC[C@H](C)[C@H](NC(=O)[C@](C)(Cc1ccccc1)NC(=O)[C@H](CCC(=O)O)NC(=O)[C@H](CCCCNC(=O)CC[C@H](NC(=O)CCCCCCCCCCCOc1ccc(C(=O)O)cc1)C(=O)O)NC(=O)[C@H](C)NC(=O)[C@H](C)NC(=O)[C@H](CCC(=O)O)NC(=O)CNC(=O)[C@H](CCC(=O)O)NC(=O)[C@H](CC(C)C)NC(=O)[C@](C)(Cc1ccccc1)NC(=O)[C@H](CO)NC(=O)[C@](C)(CO)NC(=O)[C@@H](NC(=O)[C@H](CC(=O)O)NC(=O)[C@H](CO)NC(=O)[C@@H](NC(=O)[C@](C)(Cc1ccccc1)NC(=O)[C@H](CO)NC(=O)CNC(=O)[C@H](CCC(=O)O)NC(=O)C(C)(C)NC(=O)[C@@H](N)Cc1c[nH]cn1)[C@@H](C)O)C(C)C)C(=O)N[C@@H](C)C(=O)N[C@@](C)(Cc1ccccc1)C(=O)N[C@H](C(=O)N[C@H](C(=O)N[C@@](C)(CCCCN)C(=O)NCC(=O)NCC(N)=O)C(C)C)C(C)C
B5: SEQ ID NO 138 (peptide)
peptide: H[Aib]EGS[αMeF]TSDV[αMeS]S[αMeF]LEGEAAK([γGlu-γGlu-Dodecanoyl(12-OPh(4-COOH))])E[αMeF]IA[αMeF]VV[αMeK]GG-NH2
modifications: N-terminus assumed
SMILES: CC[C@H](C)[C@H](NC(=O)[C@](C)(Cc1ccccc1)NC(=O)[C@H](CCC(=O)O)NC(=O)[C@H](CCCCNC(=O)CC[C@H](NC(=O)CC[C@H](NC(=O)CCCCCCCCCCCOc1ccc(C(=O)O)cc1)C(=O)O)C(=O)O)NC(=O)[C@H](C)NC(=O)[C@H](C)NC(=O)[C@H](CCC(=O)O)NC(=O)CNC(=O)[C@H](CCC(=O)O)NC(=O)[C@H](CC(C)C)NC(=O)[C@](C)(Cc1ccccc1)NC(=O)[C@H](CO)NC(=O)[C@](C)(CO)NC(=O)[C@@H](NC(=O)[C@H](CC(=O)O)NC(=O)[C@H](CO)NC(=O)[C@@H](NC(=O)[C@](C)(Cc1ccccc1)NC(=O)[C@H](CO)NC(=O)CNC(=O)[C@H](CCC(=O)O)NC(=O)C(C)(C)NC(=O)[C@@H](N)Cc1c[nH]cn1)[C@@H](C)O)C(C)C)C(=O)N[C@@H](C)C(=O)N[C@@](C)(Cc1ccccc1)C(=O)N[C@H](C(=O)N[C@H](C(=O)N[C@@](C)(CCCCN)C(=O)NCC(=O)NCC(N)=O)C(C)C)C(C)C

Assays:
Assay in all cases: cell-based or functional assay
[1] = target: glucagon receptor (GCGR) (human, UniProt P47871 26-477)
[2] = target: GLP-1 receptor (GLP-1R) (human, UniProt P43220 24-463)
[3] = target: T1, glucose-dependent insulinotropic …

glucagon receptor (GCGR), sequence (P47871 26-477): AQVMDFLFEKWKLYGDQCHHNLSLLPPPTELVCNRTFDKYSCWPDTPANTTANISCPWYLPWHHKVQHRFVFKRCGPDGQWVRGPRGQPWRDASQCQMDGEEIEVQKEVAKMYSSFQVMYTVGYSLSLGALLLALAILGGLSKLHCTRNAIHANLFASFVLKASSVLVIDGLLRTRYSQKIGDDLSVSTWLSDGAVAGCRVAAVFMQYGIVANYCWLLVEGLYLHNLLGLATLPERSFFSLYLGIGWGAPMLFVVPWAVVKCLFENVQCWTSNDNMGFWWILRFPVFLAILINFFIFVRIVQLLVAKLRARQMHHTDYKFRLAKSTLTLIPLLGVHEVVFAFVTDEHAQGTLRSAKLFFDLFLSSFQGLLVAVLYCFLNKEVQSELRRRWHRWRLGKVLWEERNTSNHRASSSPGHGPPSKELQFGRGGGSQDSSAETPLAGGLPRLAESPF

Row | Binder | cAMP Primary assay EC50 Gluc-R [1] [nM] | cAMP Primary assay EC50 Gluc-R (2nd) [1] [nM] | cAMP Mean pM GLP-1R [2] [pM] | cAMP Primary assay EC50 GLP-1R n1 [2] [nM] | cAMP Primary assay EC50 GLP-1R n2 [2] [nM] | cAMP Primary assay EC50 GIP-R [3] [nM] | cAMP Primary assay EC50 GIP-R (2nd) [3] [nM]
1 | B1 | 29 | 29 | 11.7 | 0.014 | 0.0099 | 29 | 29
2 | B2 | 28 | 28 | 9 | 0.011 | 0.0071 | 28 | 28
3 | B3 | 27 | 27 | 29.4 | 0.034 | 0.025 | 27 | 27
4 | H[Aib]EGS[αMeF]TSDV[αMeS]S[αMeF]LEGEAAK([PEG2′-Lauroyl])E[αMeF]IA[αMeF]VV[αMeK]GG-NH2 [SEQ ID NO 134] | 28 | 28 | 6 | 0.007 | 0.0049 | 28 | 28
5 | H[Aib]EGS[αMeF]TSDV[αMeS]S[αMeF]LEGEAAK([PEG2′-PEG2′-Lauroyl])E[αMeF]IA[αMeF]VV[αMeK]GG-NH2 [SEQ ID NO 135] | 27 | 27 | 5 | 0.0054 | 0.0045 | 27 | 27
6 | H[Aib]EGS[αMeF]TSDV[αMeS]S[αMeF]LEGEAAK([PEG2′-PEG2′-PEG2′-Lauroyl])E[αMeF]IA[αMeF]VV[αMeK]GG-NH2 [SEQ ID NO 136] | 26 | 26 | 3 | 0.0035 | 0.0025 | 26 | 26
7 | B4 | 27 | 27 | 5.2 | 0.0066 | 0.0038 | 27 | 27
8 | B5 | 26 | 26 | 17.2 | 0.019 | 0.015 | 26 | 26

— patent publication US20200079833A1 (AstraZeneca / MedImmune, published 2020)
